In PMC4457943:
Read-outs that look alike come from different tables or passages of the source. Each block holds one molecule with its values, some of them ahead of it.

Experiments:
Experiment in all cases: FRET or BRET
[1] = target: MHC class II glycoprotein (HLA-DR) (human (endogenous in Kit225/IL-9R and MT-2))
[2] = target: MHC class I heavy chain (human (endogenous in Kit225/IL-9R and MT-2)) (UniProt P04439)
[3] = target: MHC class II glycoprotein (HLA-DR) (human (endogenous in Kit225/IL-9R and MT-2)); remark: listed apart in the source
[4] = target: MHC class I heavy chain (human (endogenous in Kit225/IL-9R and MT-2)) (UniProt P04439); remark: listed apart in the source

FRET efficiency E (%) [1]: 11.9% | FRET efficiency E (%) [2]: 22.5% | FRET efficiency E (%) [3]: 21.9% | FRET efficiency E (%) [4]: 21.7%
Molecule: IL-2 receptor α chain (IL-2Rα) (from UniProt P01589 22-272)

FRET efficiency E (%) [3]: 15.9% | FRET efficiency E (%) [4]: 17.2%
B1: interleukin-9 receptor α-subunit (IL-9Rα), stably transfected in Kit225/IL-9R cells (receptor)
chain: SVTGEGQGPRSRTFTCLTNNILRIDCHWSAPELGQGSSPWLLFTSNQAPGGTHKCILRGSECTVVLPPEAVLVPSDNFTITFHHCMSGREQVSLVDPEYLPRRHVKLDPPSDLQSNISSGHCILTWSISPALEPMTTLLSYELAFKKQEEAWEQAQHRDHIVGVTWLILEAFELDPGFIHEARLRVQMATLEDDVVEEERYTGQWSEWSQPVCFQAPQRQGPLIPPWGWPGNTLVAVSIFLLLTGPTYLLFKLSPRVKRIFYQNVPSPAMFFQPLYSVHNGNFQTWMGAHGAGVLLSQDCAGTPQGALEPCVQEATALLTCGPARPWKSVALEEEQEGPGTRLPGNLSSEDVLPAGCTEWRVQTLAYLPQEDWAPTSLTRPAPPDSEGSRSSSSSSSSNNNNYCALGCYGGWHLSALPGNTQSSGPIPALACGLSCDHQGLETQQGVAWVLAGHCQRPGLHEDLQGMLLPSVLSKARSWTF

FRET efficiency E (%) [3]: 10.2% | FRET efficiency E (%) [4]: 13.5%
B2: interleukin-9 receptor α-subunit (IL-9Rα), endogenous in MT-2 cells (receptor)
chain: B1 chain
